{"source": "the DeepSol protein solubility set", "data": [{"assay": "soluble on expression in E. coli; label from the status in PepcDB or PDB records", "values": [{"sequence": "MSLDPTRVDLLSICKEILTYPEYQERLPAGSAHPNIDSPAIKSLYAEIGRHSRQQTHVPSHYQLPPGDHLLIKQLAKITQDLGTPAKLDEIMVTHGAQQAISLALRATTQKGDIVAVESPCYFGNLLMLESLGLKVVEIPSCPRDGMCPEALAKTMATWDIKALIVTPNFTNPTGAMMPLEKRQQLLLASGNIPIIEDDVFGGLSYDKPLPSLSLLDDKQRVIYVNSLSKTLDSRLRIGWMLAGRYRDQIEQYLLCENMGSLNLMQSAVATFLTSGKYRTHTARMGRVYQNNMRRFIQMLHQYLDEYESLKNRYQINAVQGSFLLWLRLPEDTDSYALYQACNKHRISLLPGTVFGTQEQYRHCVRLSVANFGHETDWSHAMQTLAKLIAKRVCEGHHHHHH", "soluble on expression in E. coli": "soluble"}, {"sequence": "ELVMTQTPLSLPVSLGDQASISCRSSQSLVHSNGNTYLHWYLQKPGQSPKFLIYKVSNRFSGVPDRFSGSGSGTDFILKISRVEAEDLGVYFCFQSTHFFPTFGGGTKLEIKRTVAAPSVFIFPPSDEQLKSGTASVVCLLNNFYPREAKVQWKVDNALQSGNSQESVTEQDSKDSTYSLSSTLTLSKADYEKHKVYACEVTHQGLSSPVTKSFNRGEC", "soluble on expression in E. coli": "soluble"}, {"sequence": "MLLNEASDAIYWVNHKGLITYANPSAQILFGYEEVELKDKSISDLIVSKTDLFSTFSSNIIEEKGVVIQQEFVRKDNSTFYGEMSVRLFDDGSHQAIIRDITKGVIEQRLLLDRERKFKILVENAFDIIIVLSSDFKIKFISPAIKKMLGYEIDSVLGENSNKFIEFRDRVMIKEVLKNHGITYAINDLKLIHKNGQIIHCEVNAVNFLNDPLINGIIVNCHDISKRIQTENELINTNYELDSFVYKVSHDLKAPLRSMLGLINLSQKENTEDTVKLYLDMMVRSIHNMDIFIKDLTQFSRNSRMEVIKESIDFKELITKIENNLKYDDNARFISFERNISQQSLFYSDPNRVETIVSNLLSNAYKYHRFDSNNPYINVKIEVSETAACIVIKDNGSGIADEYHNKIFQMFFRASEKSQGSGLGLYIVKSAIDKLEGTITLHSIPDKESTFTVEIPNLLTR", "soluble on expression in E. coli": "not soluble"}, {"sequence": "KKHILVYNEEADEALRQIKADRIELHQSFKASFERLNEIQQLAYTNAMTRDAALIQEPDFDPEQLESDYYRNLYRINTRRDNLNTHRALEN", "soluble on expression in E. coli": "not soluble"}, {"sequence": "MQVVSSATLPPTVASADLAIVGGRSSDEDVIKYSAIQTIKQEQQQQQQQQSNTALPSYNFPFFNGMQNDFPPNRMLYNDNTMQKSENDHFTGMNLSTSASSSGNSTSSKDQSRRQFYTESSNSSGNGAAATSGSNGSSSSTESKSDVFNISMNAFAATPGSKSEDHNIPSFNMLSSYYTGALKLSNSTSFANPDPYQILGPTSKNLAHSGSGQTQLWQFLLELLSDKRYSEVITWEGTQGEFKLVDPDEVARKWGERKSKPNMNYDKMSRALRYYYDKNIMAKVHGKRYAYKFDFQGIAQALQPPTASHPQDYFNSHAMGRIAPDFSSWTSANYRSLNIAGFNNGSTIFNPSVNYSAFGATGTSNNLSAARAFPLYR", "soluble on expression in E. coli": "not soluble"}, {"sequence": "MGHHHHHHSHMASRVRVTILFATETGKSEALAWDLGALFSCAFNPKVVCMDKYRLSCLEEERLLLVVTSTFGNGDCPGNGEKLKKSLFMLKELNNKFRYAVFGLGSSMYPRFCAFAHDIDQKLSHLGASQLTPMGEGDELSGQEDAFRSWAVQTFKAACETF", "soluble on expression in E. coli": "not soluble"}, {"sequence": "LHAEGPPSVICIRLLVGLVFLSEGIQKFMYPDQLGPGRFERIGIPAATFFADLDGVVEIVCGTLVLLGLLTRVAAVPLLIDMVGAIVLTKLRALQPGGFLGVEGFWGMAHAARTDLSMLLGLIFLLWSGPGRWSLDRRLSKRATACGAR", "soluble on expression in E. coli": "not soluble"}, {"sequence": "MDKLGENLNKALNKLKAAAFVDKKLIKEVIKDIQRALIQADVNVKLVLKMSKEIERRALEEKTPKGLSKKEHIIKIVYEELVKLLGEEAKKLELNPKKQNVILLVGIQGSGKTTTAAKLARYIQKRGLKPALIAADTYRPAAYEQLKQLAEKIHVPIYGDETRTKSPVDIVKEGMEKFKKADVLIIDTAGRHKEEKGLLEEMKQIKEITNPDEIILVIDGTIGQQAGIQAKAFKEAVGEIGSIIVTKLDGSAKGGGALSAVAETKAPIKFIGIGEGIDDLEPFDPKKFISRLLGMGDLESLLEKAEDMVDEKTEESIDAIMRGKFTLNELMTQLEAIENMGSMKKILSMIPGFGGAMPKELSHLTEAKIKKYKVIISSMTKEERENPKIIKASRIRRIARGSGTTENDVREVLRYYETTKNAIDKLHHHHHH", "soluble on expression in E. coli": "soluble"}, {"sequence": "LIERIEGFEPQWWEQGGAKPEKPEMREPRQRNRYESAKAQREKNTRPENAANDAGAACGKIAGRSRRSRREHRTCALLQPRYGVK", "soluble on expression in E. coli": "soluble"}, {"sequence": "MGSDKIHHHHHHMADAATLKARVAQIFREAWTTREGQKVPDPGDVKLGNDAVEFEKATILYADLSGSTDLVNAHGWTFAAEIYKTYLHCAATIIRDEGGSIVSYDGDRVMGVFIGDPQTTPAARAGLKINYAVQEIINPALKAQYPSNTFVVRQVVGIDTSPIRAARTGVRGDNDLVWVGRAANYAAKLTELKLDERTWITKEAYDRLTDDAKFGGANRTLMWKFYRWSQMNDHPIYGSTWRWSL", "soluble on expression in E. coli": "not soluble"}, {"sequence": "YHHSVVVGNLSEAACESIGENGLLARVGSYYHDLGKTRRPHFFIENQMKMENPHDRISPQLSATIIISHPYDGAKMLKEYKMPKEIIDIAEQHHGTSLLKYFYHKAQQESDQEVEETSFRYPGPKAQSKVAAIVGIADSVEA", "soluble on expression in E. coli": "soluble"}, {"sequence": "MSLDLFSVRMRAQKNGKHVSGAERIVKKEELETAVKELLNRPKEFDFMNVKVEKVKDFEVVKFNLKISTYSFKSPEEAREFAVKKLTQEGIKEEVAKKAVEILSKGANPKGGNMRGAVLMDIETGERLEEDKERGVRTIHFDWKDRKKVTEKLLKEGYTLRTVDALALTFKNLFCGVVAELCWSDDPDYVTGYVSGKEIGYVRITPLKEKGDPLGGRVYFVSRKELSEIIECLTQKVVLIELEGHHHHHH", "soluble on expression in E. coli": "soluble"}, {"sequence": "MVINSINWLFSEVVAMAVGEKITISVIKADVGGWPGHSRVHPALIEKAREVLSEAQKNGTIIDFYVTYAGDDLQLIMTHKKGVDSPEVHGLAWEAFKKATEVAKELGLYGAGQDLLKDAFSGNVRGLGPSVAEMEITLRKSEPIVTFHLDKTEPGAFNLPIFRMFADPFNTAGLVIDPKMHMGFRFEIWDILEHKKVIMSSPEEMYDILALIGAKSRYVIKRVYPKEGHPVPKDEPVAVVSTEKLYEVAGEYVGKDDPVAIVRAQSGLPALGEVLEPFAFPHLVSGWMRGSHNGPLMPVPLKYATPTRFDGPPRAVALGWQISPEGKLIGPVDLFDDPAFDWARQKALEITDYIRRHGPFEPHRLPSEEMEYTTLPGVLEKLKDRFEPIE", "soluble on expression in E. coli": "soluble"}, {"sequence": "MRELRIESVHTNPYTLTLRMNGVTLNDKDDRQLLGWGNLLVNLEWSSIIDQTWTFEAIRIDKLMIQEERFVSGETRFSRLAAESSGPEAGKEKAEKEESAEMPALRIRDFKLENGILRFADNLKDVTAADDAEPKQVSLALQNIGLSVKDFTLQNDASFPLRLNGQLTKGGKLAFDGTFQLLPSPALEGNAEINELAFKQAAPYLQQFMNVQLENGTLTLNGQMSTNAQQPFAFKGSASINTLNIKEASNDETLLGWDSLQTGQFDLNIASKEIETAPIVVKGLSARVVINQDKTTNFGQLVVDTPADTKGDTNKSEETQPFGITIEGVELSDGDVQFADKSLPLPFSTSIHTLSGEVSTLSSDSSEPARVKFEGEVAEYGLAQVNGTVHAWHPTRQTTINVRFRNLQIPEYSPYTVNFAGRKIADGTMDLDLDYTVNEEKLDGQNNLVLHDLKLGEKMESSDAMDLPLDLAIALLQDSDGVIDLNLPVSGDVGNPQFDFGKVIQQAVGDAIKSVVTAPFSFLANLVGADSEEMGKVEFPEGRTHLLPPQRERIAKLREALNKRPALALELAGPFNQAFDAPALKEDKAMKVLQQRLAEEGSEVEEPSLTSESSQDAMEAIFSSHYPDTELEALKDRFTEKPSEASNEEKFDALAYRNHLAEKVIAAQSITNEELKAIANARAETVRDALVNNSESGISADRVRIREPQEVDSVEGERIAMELAVTTDLEHHHHHH", "soluble on expression in E. coli": "not soluble"}, {"sequence": "MQQQCDTVSAWQSLRGPGTGGYYLFKTTEGGKTDCTYVKGSNFNDAAQTATYTYGNMGSGNQMTQQTASASISGNAIVVGTDHSEVMYSDGSTCDVVRLNGQIELWIHSSATSNTGNLNSCCTDKFNQEKGSRPEHVVYRSTCPNMPQ", "soluble on expression in E. coli": "soluble"}, {"sequence": "MRETKEWRGTTSTSRVFVQKGYQLSDELALRKVQVLERRYGGMQLAHRAATVIQRAWREYCIMKQWMVIRHKHDTIPDHLDARCGVSNSQRNELSLTSRYATSLSAQLRIDRAARSTTLDRSPPSPAPPVLVNLQNSNMIDSLMSPRLGNRRFGAAASRCAPAAAELTSTEVWLPRPSLVNHNPAHSNSLPRLQLLTAWGFVKNSPDSLASLLFGRRGLSKSMIGEYIGTLHSPYHSLVLKYFTALIDIRGLEVDVALRKAMQFFILPKEAEKIDRIIQAFALHYSKSNPKRTSHYRGGWDTIHLLSFAIIMLNTDLHSPNVKQRMTQADFVKNLRGQDKISGEKNGEDIDRKTLEGIYDRIKKDELKAGDDHVAQVQRVDRAIVGKDKPRLTETPRRLVCYCRLQQVSDPTKRQSSSARERDVFLFNDMIVVAKGVRRGSTSMAGCTYTLKQWTLLLGAHVTEFQRGQYEFGLTITCPNKDKIHFNARNFEDRCHFVADVTESIREATEMEQVRLEMEMEQHTTTTIRPDNQRDSGLPDMDESMKLSNGSNSSAGSSNSSTNGVNNSSFRRLSFNSLDSGVVEEHLDAC", "soluble on expression in E. coli": "not soluble"}, {"sequence": "MGSDKIHHHHHHMPRVIKHPEIRREDILDHAQALFLTQGYDRASLNDVIASAGISKGAFYHYFASKEALLEALADRFARQALAGVQGVVDDPGLDPLGRLNGLLSQSRQAKIETAAEAWALFETMFRPENLVLFHRINLAANASFSPLLVKIIRQGVEDGTFRTFDPEGVADIVMQFGLATHDVVAKAIAGGSDADMEVAIEVLEKRVRLYEIALDRILGLPDGSIRIGEPGYIRAVMTARRKADKAR", "soluble on expression in E. coli": "not soluble"}, {"sequence": "MGHHHHHHSHMSCTVYAKTQQAKFLTWQFDGEYRGDDYTATLTLGNPDLIGESVIMVAHFLQSLTHRLVLGGELVYHRRPGEEGAILTLAGKYSAVHWVATLNVGSGGAHASYYHRANEQVQVGVEFEANTRLQDTTFSFGYHLTLPQANMVFRGLVDSNWCVGAVLEKKMPPLPVTLALGAFLNHWRNRFHCGFSITVG", "soluble on expression in E. coli": "not soluble"}, {"sequence": "MGHHHHHHSHMAGEKAQKKGKEKWKEKTWYTVESPPYLGSKEVTVALGEDPESMVNRIVEVPISDLTGNFKKSNEKALFRITGCEGTKCKTIFIGHYIGDDYIRRLVRRRKERIDIIEDVKTSDGSIITVKIVVVSDGKLTNTKKSEIRKALTSFIVSKGSQLSYADFVRYLIGDDSYNDMVEATKNIYPLRKIEIRKSELVSLSGMQEPQKNEPAPGGEAIAQN", "soluble on expression in E. coli": "not soluble"}, {"sequence": "MNQYQKTTERKKQAIIQAALHLFKEKGFKGTSIKSIAKAAQVSPVSIYNYFESKESLVDLCVNKLFEEITQEAENILTSEIDFKMKLCQALALCQKKMSHQISVYFKEKTIKDPTFSKLLTKAIVAKKREIYRSYIKLGKDEGVIAKDLSTELILNVMDALNSIGNQLSESENLGEEIEQIHRLFLYGIFGKI", "soluble on expression in E. coli": "not soluble"}, {"sequence": "MSLMYGYPEKWLEGMTTGEGIAAELRLGIVNGHIAEGTLLTENQMAKQFNVSRSPIRDAFKLLQQNQLIQLERMGAHVLPFGEQEKKEMYDLRLMLESFAFSRVKNQERLPIVKEMKKQLEMMKVAVKFEDAESFTKHDFEFHETLIKASNHQYLNSFWSHLKPVMMALVLTSMRQRMQQNPQDFERIHHNHQVFIDAVEQYDSQILKEAFHLNFDDVGKDIEGFWLNEGHHHHHH", "soluble on expression in E. coli": "soluble"}]}]}
